{"source": "patent US12099068B2", "about": "“Biomarkers for graft-versus-host disease” (Incyte Corporation, priority 2018, dated 2024)", "molecules": {"B1": {"name": "hOSCAR (protein, UniProt Q8IYS5 19-282, looked up)", "Osteoclast-associated …": "DITPSVPPASYHPKPWLGAQPATVVTPGVNVTLRCRAPQPAWRFGLFKPGEIAPLLFRDVSSELAEFFLEEVTPAQGGIYRCCYRRPDWGPGVWSQPSDVLELLVTEELPRPSLVALPGPVVGPGANVSLRCAGRLRNMSFVLYREGVAAPLQYRHSAQPWADFTLLGARAPGTYSCYYHTPSAPYVLSQRSEVLVISWEGEGPEARPASSAPGMQAPGPPPSDPGAQAPSLSSFRPRGLVLQPLLPQTQDSWDPAPPPSDPGV"}, "B2": {"name": "CNDP1 (protein, UniProt Q96KN2 27-507, looked up)", "Beta-Ala-His dipeptidase": "SPSPPPALLEKVFQYIDLHQDEFVQTLKEWVAIESDSVQPVPRFRQELFRMMAVAADTLQRLGARVASVDMGPQQLPDGQSLPIPPVILAELGSDPTKGTVCFYGHLDVQPADRGDGWLTDPYVLTEVDGKLYGRGATDNKGPVLAWINAVSAFRALEQDLPVNIKFIIEGMEEAGSVALEELVEKEKDRFFSGVDYIVISDNLWISQRKPAITYGTRGNSYFMVEVKCRDQDFHSGTFGGILHEPMADLVALLGSLVDSSGHILVPGIYDEVVPLTEEEINTYKAIHLDLEEYRNSSRVEKFLFDTKEEILMHLWRYPSLSIHGIEGAFDEPGTKTVIPGRVIGKFSIRLVPHMNVSAVEKQVTRHLEDVFSKRNSSNKMVVSMTLGLHPWIANIDDTQYLAAKRAIRTVFGTEPDMIRDGSTIPIAKMFQEIVHKSVVLIPLGAVDDGEHSQNEKINRWNYIEGTKLFAAFFLEMAQLH"}, "B3": {"name": "SIRT2 (protein, UniProt Q8IXJ6 2-389, looked up)", "NAD-dependent protein …": "AEPDPSHPLETQAGKVQEAQDSDSDSEGGAAGGEADMDFLRNLFSQTLSLGSQKERLLDELTLEGVARYMQSERCRRVICLVGAGISTSAGIPDFRSPSTGLYDNLEKYHLPYPEAIFEISYFKKHPEPFFALAKELYPGQFKPTICHYFMRLLKDKGLLLRCYTQNIDTLERIAGLEQEDLVEAHGTFYTSHCVSASCRHEYPLSWMKEKIFSEVTPKCEDCQSLVKPDIVFFGESLPARFFSCMQSDFLKVDLLLVMGTSLQVQPFASLISKAPLSTPRLLINKEKAGQSDPFLGMIMGLGGGMDFDSKKAYRDVAWLGECDQGCLALAELLGWKKELEDLVRREHASIDAQSGAGVPNPSTSASPKKSPPPAKDEARTTEREKPQ"}, "B4": {"name": "LAT (protein, UniProt O43561 1-262, looked up)", "Linker for activation of …": "MEEAILVPCVLGLLLLPILAMLMALCVHCHRLPGSYDSTSSDSLYPRGIQFKRPHTVAPWPPAYPPVTSYPPLSQPDLLPIPRSPQPLGGSHRTPSSRRDSDGANSVASYENEGASGIRGAQAGWGVWGPSWTRLTPVSLPPEPACEDADEDEDDYHNPGYLVVLPDSTPATSTAAPSAPALSTPGIRDSAFSMESIDDYVNVPESGESAEASLDGSREYVNVSQELHPGAAKTEPAALSSQEAEEVEEEGAPDYENLQELN"}, "B5": {"name": "PTPRJ (protein, UniProt Q12913 36-1337, looked up)", "Receptor-type …": "AGGTPSPIPDPSVATVATGENGITQISSTAESFHKQNGTGTPQVETNTSEDGESSGANDSLRTPEQGSNGTDGASQKTPSSTGPSPVFDIKAVSISPTNVILTWKSNDTAASEYKYVVKHKMENEKTITVVHQPWCNITGLRPATSYVFSITPGIGNETWGDPRVIKVITEPIPVSDLRVALTGVRKAALSWSNGNGTASCRVLLESIGSHEELTQDSRLQVNISGLKPGVQYNINPYLLQSNKTKGDPLGTEGGLDASNTERSRAGSPTAPVHDESLVGPVDPSSGQQSRDTEVLLVGLEPGTRYNATVYSQAANGTEGQPQAIEFRTNAIQVFDVTAVNISATSLTLIWKVSDNESSSNYTYKIHVAGETDSSNLNVSEPRAVIPGLRSSTFYNITVCPVLGDIEGTPGFLQVHTPPVPVSDFRVTVVSTTEIGLAWSSHDAESFQMHITQEGAGNSRVEITTNQSIIIGGLFPGTKYCFEIVPKGPNGTEGASRTVCNRTVPSAVFDIHVVYVTTTEMWLDWKSPDGASEYVYHLVIESKHGSNHTSTYDKAITLQGLIPGTLYNITISPEVDHVWGDPNSTAQYTRPSNVSNIDVSTNTTAATLSWQNFDDASPTYSYCLLIEKAGNSSNATQVVTDIGITDATVTELIPGSSYTVEIFAQVGDGIKSLEPGRKSFCTDPASMASFDCEVVPKEPALVLKWTCPPGANAGFELEVSSGAWNNATHLESCSSENGTEYRTEVTYLNFSTSYNISITTVSCGKMAAPTRNTCTTGITDPPPPDGSPNITSVSHNSVKVKFSGFEASHGPIKAYAVILTTGEAGHPSADVLKYTYEDFKKGASDTYVTYLIRTEEKGRSQSLSEVLKYEIDVGNESTTLGYYNGKLEPLGSYRACVAGFTNITFHPQNKGLIDGAESYVSFSRYSDAVSLPQDPGVICGAVFGCIFGALVIVTVGGFIFWRKKRKDAKNNEVSFSQIKPKKSKLIRVENFEAYFKKQQADSNCGFAEEYEDLKLVGISQPKYAAELAENRGKNRYNNVLPYDISRVKLSVQTHSTDDYINANYMPGYHSKKDFIATQGPLPNTLKDFWRMVWEKNVYAIIMLTKCVEQGRTKCEEYWPSKQAQDYGDITVAMTSEIVLPEWTIRDFTVKNIQTSESHPLRQFHFTSWPDHGVPDTTDLLINFRYLVRDYMKQSPPESPILVHCSAGVGRTGTFIAIDRLIYQIENENTVDVYGIVYDLRMHRPLMVQTEDQYVFLNQCVLDIVRSQKDSKVDLIYQNTTAMTIYENLAPVTTFGKTNGYIA"}, "B6": {"name": "SERPINA5 (protein, UniProt P05154 26-406, looked up)", "Plasma serine protease …": "EMKKRVEDLHVGATVAPSSRRDFTFDLYRALASAAPSQSIFFSPVSISMSLAMLSLGAGSSTKMQILEGLGLNLQKSSEKELHRGFQQLLQELNQPRDGFQLSLGNALFTDLVVDLQDTFVSAMKTLYLADTFPTNFRDSAGAMKQINDYVAKQTKGKIVDLLKNLDSNAVVIMVNYIFFKAKWETSFNHKGTQEQDFYVTSETVVRVPMMSREDQYHYLLDRNLSCRVVGVPYQGNATALFILPSEGKMQQVENGLSEKTLRKWLKMFKKRQLELYLPKFSIEGSYQLEKVLPSLGISNVFTSHADLSGISNHSNIQVSEMVHKAVVEVDESGTRAAAATGTIFTFRSARLNSQRLVFNRPFLMFIVDNNILFLGKVNRP"}, "B7": {"name": "CX3CL1 (protein, UniProt P78423 25-397, looked up)", "Fractalkine": "QHHGVTKCNITCSKMTSKIPVALLIHYQQNQASCGKRAIILETRQHRLFCADPKEQWVKDAMQHLDRQAAALTRNGGTFEKQIGEVKPRTTPAAGGMDESVVLEPEATGESSSLEPTPSSQEAQRALGTSPELPTGVTGSSGTRLPPTPKAQDGGPVGTELFRVPPVSTAATWQSSAPHQPGPSLWAEAKTSEAPSTQDPSTQASTASSPAPEENAPSEGQRVWGQGQSPRPENSLEREEMGPVPAHTDAFQDWGPGSMAHVSVVPVSSEGTPSREPVASGSWTPKAEEPIHATMDPQRLGVLITPVPDAQAATRRQAVGLLAFLGLLFCLGVAMFTYQSLQGCPRKMAGEMAEGLRYIPRSCGSNSYVLVPV"}, "B8": {"name": "CES2 (protein, UniProt O00748 27-559, looked up)", "Cocaine esterase": "QDSASPIRTTHTGQVLGSLVHVKGANAGVQTFLGIPFAKPPLGPLRFAPPEPPESWSGVRDGTTHPAMCLQDLTAVESEFLSQFNMTFPSDSMSEDCLYLSIYTPAHSHEGSNLPVMVWIHGGALVFGMASLYDGSMLAALENVVVVIIQYRLGVLGFFSTGDKHATGNWGYLDQVAALRWVQQNIAHFGGNPDRVTIFGESAGGTSVSSLVVSPISQGLFHGAIMESGVALLPGLIASSADVISTVVANLSACDQVDSEALVGCLRGKSKEEILAINKPFKMIPGVVDGVFLPRHPQELLASADFQPVPSIVGVNNNEFGWLIPKVMRIYDTQKEMDREASQAALQKMLTLLMLPPTFGDLLREEYIGDNGDPQTLQAQFQEMMADSMFVIPALQVAHFQCSRAPVYFYEFQHQPSWLKNIRPPHMKADHGDELPFVFRSFFGGNYIKFTEEEEQLSRKMMKYWANFARNGNPNGEGLPHWPLFDQEEQYLQLNLQPAVGRALKAHRLQFWKKALPQKIQELEEPEERHTEL"}, "B9": {"name": "NFKBIE (protein, UniProt O00221 1-500, looked up)", "NF-kappa-B inhibitor epsilon": "MNQRRSESRPGNHRLQAYAEPGKGDSGGAGPLSGSARRGRGGGGAIRVRRPCWSGGAGRGGGPAWAVRLPTVTAGWTWPALRTLSSLRAGPSEPHSPGRRPPRAGRPLCQADPQPGKAARRSLEPDPAQTGPRPARAAGMSEARKGPDEAEESQYDSGIESLRSLRSLPESTSAPASGPSDGSPQPCTHPPGPVKEPQEKEDADGERADSTYGSSSLTYTLSLLGGPEAEDPAPRLPLPHVGALSPQQLEALTYISEDGDTLVHLAVIHEAPAVLLCCLALLPQEVLDIQNNLYQTALHLAVHLDQPGAVRALVLKGASRALQDRHGDTALHVACQRQHLACARCLLEGRPEPGRGTSHSLDLQLQNWQGLACLHIATLQKNQPLMELLLRNGADIDVQEGTSGKTALHLAVETQERGLVQFLLQAGAQVDARMLNGCTPLHLAAGRGLMGISSTLCKAGADSLLRNVEDETPQDLTEESLVLLPFDDLKISGKLLLCTD"}, "B10": {"name": "CST5 (protein, UniProt P28325 21-142, looked up)", "Cystatin-D": "GSASAQSRTLAGGIHATDLNDKSVQCALDFAISEYNKVINKDEYYSRPLQVMAAYQQIVGGVNYYFNVKFGRTTCTKSQPNLDNCPFNDQPKLKEEEFCSFQINEVPWEDKISILNYKCRKV"}, "B11": {"name": "ST3GAL1 (protein, UniProt Q11201 1-340, looked up)", "CMP-N-acetylneuraminate-beta-g …": "MVTLRKRTLKVLTFLVLFIFLTSFFLNYSHTMVATTWFPKQMVLELSENLKRLIKHRPCTCTHCIGQRKLSAWFDERFNQTMQPLLTAQNALLEDDTYRWWLRLQREKKPNNLNDTIKELFRVVPGNVDPMLEKRSVGCRRCAVVGNSGNLRESSYGPEIDSHDFVLRMNKAPTAGFEADVGTKTTHHLVYPESFRELGDNVSMILVPFKTIDLEWVVSAITTGTISHTYIPVPAKIRVKQDKILIYHPAFIKYVFDNWLQGHGRYPSTGILSVIFSMHVCDEVDLYGFGADSKGNWHHYWENNPSAGAFRKTGVHDADFESNVTATLASINKIRIFKGR"}, "B12": {"name": "SIRPB1 (protein, UniProt O00241 30-398, looked up)", "Signal-regulatory protein …": "EDELQVIQPEKSVSVAAGESATLRCAMTSLIPVGPIMWFRGAGAGRELIYNQKEGHFPRVTTVSELTKRNNLDFSISISNITPADAGTYYCVKFRKGSPDDVEFKSGAGTELSVRAKPSAPVVSGPAVRATPEHTVSFTCESHGFSPRDITLKWFKNGNELSDFQTNVDPAGDSVSYSIHSTARVVLTRGDVHSQVICEIAHITLQGDPLRGTANLSEAIRVPPTLEVTQQPMRAENQANVTCQVSNFYPRGLQLTWLENGNVSRTETASTLIENKDGTYNWMSWLLVNTCAHRDDVVLTCQVEHDGQQAVSKSYALEISAHQKEHGSDITHEAALAPTAPLLVALLLGPKLLLVVGVSAIYICWKQKA"}}}
{"tested_on": "plasma proteins", "experiment": "Plasma proteins modulated between baseline and day 28 in responders (CR, VGPR, PR; n = 19), Example 6 (Table 13)", "format": "in vivo, human", "details": "plasma protein (OLINK NPX); responders (CR, VGPR, PR; n = 19); itacitinib 200 mg or 300 mg QD with corticosteroids; day 28 vs baseline", "procedure,_shortened": "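Longitudinal comparison, day 28 versus baseline, with steroid-naive (N=10) and steroid-refractory (N=18) patients combined. Proteins measured by OLINK proximity extension, log2 normalized protein expression. Differences tested by t tests, ANOVA, Pearson correlation, P<0.05 significant.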"}
{"molecule": "B1", "Fold Change, Decreased Expression from Baseline to Day 28": "−1.2603"}
{"molecule": "B2", "Fold Change, Increased Expression from Baseline to Day 28": 1.3856}
{"molecule": "B3", "Fold Change, Decreased Expression from Baseline to Day 28": "−1.6014"}
{"molecule": "B4", "Fold Change, Decreased Expression from Baseline to Day 28": "−2.049"}
{"molecule": "B5", "Fold Change, Decreased Expression from Baseline to Day 28": "−1.7421"}
{"molecule": "B6", "Fold Change, Increased Expression from Baseline to Day 28": 1.2683}
{"molecule": "B7", "Fold Change, Increased Expression from Baseline to Day 28": 1.5454}
{"molecule": "B8", "Fold Change, Increased Expression from Baseline to Day 28": 1.4212}
{"molecule": "B9", "Fold Change, Decreased Expression from Baseline to Day 28": "−1.2885"}
{"molecule": "B10", "Fold Change, Increased Expression from Baseline to Day 28": 1.3521}
{"molecule": "B11", "Fold Change, Increased Expression from Baseline to Day 28": 1.3415}
{"molecule": "B12", "Fold Change, Decreased Expression from Baseline to Day 28": "−1.3991"}
